# Assay results as given in US20240139115A1, “Novel Method for Preparation of Nanoparticles Comprising Cell Penetrating Peptides” (CELLPEPT SWEDEN AB, priority 2021, published 2024).
# Where no end group is shown, it is not given here. [ ]: non-standard residue; d: D form. The star is where a group is joined. Stearoyl = CCCCCCCCCCCCCCCCCC(=O)*; R8 = C=CCCCCCC[C@@](C)(N)C(=O)O; Orn = NCCC[C@H](N)C(=O)O
# What was measured:
# [1] = system: human primary keratinocytes; assay: Transfection with EGFP-coding mRNA/CPP complexes; format: cell-based; conditions: CPP solutions in mixture of organic solvents; 200 ng mRNA, 520 nM CPP, 20 h; FIG. 3
# Method: The complexes of 200 ng of mRNA with 520 nM CPP were added into culture medium above cells per well of 24-well plate for 20 h. For the delivery and expression of EGFP, mRNA complexes were assembled with NF71 (dissolved at 1 mM concentration in ethanol/DMSO/trimethylene carbonate 78/20/2) or PF14 (PF14o—dissolved at 1 mM concentration in ethanol/DMSO, or in water—PF14w).
# The CPP nanoparticles with mRNA are formed in a similar manner with pDNA. mRNA at concentration 10 μg/ml is complexed with 10 μM PF14 CPP in Milli-Qwater. If required, Ca or Mg ions are incorporated in CPP-mRNA nanoparticles as described above. Unlike other particle solutions described above, CPP-mRNA 10× solutions are directly added into growth medium where cells have been incubated. The preferred N/P ratio (“charge ratio”) of CPP to mRNA is 2. Depending on the charge of used CPP, type of cells and experiment, N/P ratio can be varied in the range 1.5 to 4. For delivery of mRNA into human primary cells, preferentially Mg ions are incorporated in CPP nanoparticles.
# [2] = Dynamic light scattering (DLS) size and polydispersity of CPP particles after dilution in water; format: physicochemical; conditions: PF14 in isopropanol/DMSO/trimethylene carbonate (90/9/1), further 10-fold dilution
# Method: (§1) The diameter and zeta potential of CPP nanoparticles may be measured using dynamic light scattering (DLS) or nanoparticle tracking analysis system (NTA) (1), (4) (using 0.01 mM peptide). The morphology of NP is analysed by transmission electron microscopy (TEM) (11), scanning electron microscopy (SEM) or atomic force microscopy (AFM) using 0.1 or 0.01 mM peptide solution.
# The physical characteristics (diameter and zeta-potential) of the peptide micelles/aggregates/nanoparticles were analysed by dynamic light scattering (DLS) using a ZetaView (Particle Metrix, Germany) or ZetasizerNano ZS apparatus (Malvern Instruments, UK) at 10 μM concentration in water.
# DLS analysis of the size of CPP particles forming after 100-fold dilution of 1 mM peptide solution in Milli-Q water or organic solvents (ambient temperature) is provided in Table 1.
# The optimal size of nanoparticles to be used for drug delivery in vivo is in range of 100 nm (between 10 and 200 nm), and the lack of large aggregates is highly essential. In order to analyse the size of CPP clusters that form in water, DLS traces were measured by Malvern Zetasizer Nano ZS. Four consecutive measurements were performed with each sample for the calculation of the size and polydispersity of the forming CPP particles.
# [3] = Transmission electron microscopy (TEM) of size and shape of CPP particles; format: physicochemical
# Method: as §1
# Analysis of the size and shape of CPP nanoparticles and their complexes with cargo nucleic acids by transmission electron microscopy (TEM) confirmed data from DLS analysis. Depending on the solvent used for preparation of 1 mM peptide solutions, the particles of CPP were largely different.
# [4] = system: HeLa pLuc705 cells; assay: Splicing correction luciferase assay (Kole's assay); conditions: hPep3 dissolved in the mixture of dimethyl sulfoxide; 100 nM SCO-705, 500 nM peptide, 24 h; FIG. 5
Substance,transfection of EGFP mRNA and expression of EGFP [1],average diameter of uniform NP [2] [nm],"aggregates present in specimen ([3]; PF14 in isopropanol/DMSO/trimethylene carbonate (90/9/1) at 1 mM, diluted in water to 0.1 mM, TEM)","diameter of spherical nanoparticles ([3]; PF14 in isopropanol/DMSO/trimethylene carbonate (90/9/1) at 1 mM, quick dilution in water to 0.1 mM, TEM)","larger PF14 particles observed in TEM images ([3]; PF14 in isopropanol/DMSO/trimethylene carbonate (90/9/1), 0.1 mM in water)",efficiency of nanoparticles with SCO cargo compared with water-dissolved hPep3 [4]
NickFect 71 (Stearoyl-HHYHHGXILLKALKALAKAIL-NH2; not fully specified (residue 7); printed as HHYHHGObILLKALKALAKAIL; also: Gly6 joined to the Orn7 side-chain delta-amino instead of its alpha-amino) [NF71],enable transfection,,,,,
"PepFect 14 (Stearoyl-AGYLLGKLL[Orn][Orn]LAAAAL[Orn][Orn]LL-NH2) [PF14, Stearyl (C18)-…OOLAAAALOOLL, C-terminal amide]",enable transfection,~100,No aggregates,40-60 nm,100-150 nm,
"hPep3 (L[R8][dK]LAKA[R8]AKLLKA[R8]AKAL; staple (positions not given here); also: three R8 olefin residues, staple pairing not given here)",,,,,,same efficiency
